Experimental data taken from PMC4637192.

Biological target: HLA-DRB5*01:01 molecule (recombinant HLA-DRA1 and DRB5*01:01 chains) (human)
Test: AlphaScreen or HTRF

## IE1 211-225 variant P3 K→Y (…) (peptide)
  IC50: 8 nM
